Data published in the nanobody polyreactivity screen of Harvey et al. (2022).

Assay: yeast display, Sf9 membrane polyspecificity reagent, FACS + sequencing; frameworks hold sequencing errors
How it was run: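 Nanobodies came from a synthetic yeast display library in Saccharomyces cerevisiae BJ5465, induced with galactose for 36–48 hours and stained for 1 hour at 4 °C with 10% biotinylated, detergent-solubilized Sf9 membrane reagent. Cells were enriched on streptavidin microbeads and then FACS-sorted, with low and high (top ~1%) gates set on anti-HA fluorescence for expression and streptavidin fluorescence for reagent binding. Each polyreactivity label reflects the gate a clone came from. Genes were amplified by colony PCR, sequenced by MiSeq 2 × 250 and filtered by CDR length.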

Sequence	polyreactivity (PSR sort gate)
QVQLVESGGGLVQAGGSLRLSCAASGSIFSYYAMGWYRQAPGKERELVASISWNGTSTYYADSVKGRFTISRDNAKNTVDLQMNSLKPEDTADYYCNVRFNYRGTYDYWGQGTQVTVSS	low polyreactivity
QVQLVESGGGLVQAGGSLRLSCAATGYIIQHYAMGWYRQSAGKERELVAAITSGGSTTYADSVKWRFTISRDNAKNTVFLQMNSLKPEDSAVYYCKALRRDRYTRKGYEYWGQGTQVTVSS	high polyreactivity
QVQLEESGGGLVQAGGSLRLSCAASGRTFRFYAMGWYRQAPGKERELVAAISESGGNTYYADSVKGRFTISRDNAKNTVYLQMNSLKPEDTAVYYCAARGRWKYNYWGQGTQVTVSS	high polyreactivity
QVQLVESGGGLVQAGGSLRLSCAASGSIFRSNAMGWYRQAPGKERELVAAITQSGDTTNYADSVKGRFTISRDNAKNTVYLQMNSLKPEDTAVYYCNADTDRYWPYEYDYWGQGTQVTVSS	low polyreactivity
QVQLVESVGGLVQAGGSLRLICAASGSTFRVNAIGWYRQAPGKEREFVAAITGNAGSTYYADSVKGRFTISRDNAKNTVYLQMNSLKPEDTAVYYCAAGLPGYDGDYWGQGTQVTVSS	low polyreactivity
QVQLVESGAALVQAGGSLSLSCAASGLTFYYYAMGWYRQAPGKERELVAAITSGGSTNYADSVKGRFTISRDNAKNTVFLQINSLKPEDTAVYYCAADPRYSFWGMYYWGLGTQVTVSS	low polyreactivity
QVQLVESGGGLVQAGGSLRLSCAASGSIFPRNAMGWYRQAPGKERELVAAITTTGGITHYADSVKGRFTISRDNAKNTVYLLMNSLKPEDTAVYYCNASYEYNAGRVETEYDYWGQGTKVTVSS	low polyreactivity
QVQLVESGGGLVQAGGSLRLSCAASGSTFYYYAMGWYRPAPGKEREMVAAINSGGRTNYADSVKGRFTISRDNAKNSVYLQMNSLKPEDTAVYYCAKRTYPYGTYRSVWGYDYWGQGTQVTVSS	low polyreactivity
QVQLVESGGGLVPAGGSLRLSCAASGFIFHGYAIGWYREAPGKEMELVAAISGTGGSTYYADSVKGRFTISRDNAKNTVYLQMNSLKPEDTAVYYCNARRVRSDRRGGDYWGQGTQVTVSS	high polyreactivity
QVQLVESGGGLVQAGASLRLSCAASGRTFTQYAMGWYRQAPGKERELVAAISRSGGTTYYADSVKGRFTISRENAKNTVYLQMNSLKPEDTAVYYCAARWWYRYNYDYWGQGTQVTVSS	high polyreactivity
QVQLVESGGGLVQAGVSLRLSCAASGRIFNGNAMGWYRQAPGIEWELVATITRGGGSTYYADSVKGRFTISRDNAKKTVYLQMNSLKPEDTAVYSCNVPPPTQVRYRSDHWGQGTQVTVSS	low polyreactivity
QVQLEESGGGLVQAGGSLRLSSPASGFIFRYYAMGWYRQAPGKERELVAAISGRGGSTYYADSVKGRFTISRDNAKNTVYLQMNSLKPEDTAVYYCAVDVPSQGGDYWGQGTQVTVSS	high polyreactivity
QLQLVESGGGLVQAGGSLRLSCAASGSIFGPYARGWYRQAPGKERELVAAITDGGGSTYYADSVKGRFTISRDNAKNTVYLQMNSLKPEETAVDYCAADHSSKSGPADTFYWFDYWGQGTQVTVSS	low polyreactivity
QVQLVESGGGLVQAGGSLRLSCAASGLTFYSYAMGWYRQAPGKERELVATIRWSGGSTYYADSVKGRFTISRDNAKNTVYLQMNSLKPEDTAVYFCAADRRINYDGLDMDYWGQGTQVTVSS	low polyreactivity
QVQLVESGGGLVQEGGSLRLSCAASGSHFTRYVMGWYRPAPGKERELVAAITTGGSTYYADSVKGRFTISLDNAKNTVYLQMNSLKPEDTAVYYCAADRRTVSYKYNYWGQGTQVTVSS	high polyreactivity
QVQLVESGGGLLQAGGSLRLSCAASGFSFLCYAMGWYRQEPRKERELVASITYGGDSTYYADSVKGRFTISRDNAKNTVYLQMNSLKPEDTAGYYCNARPSYWWGGRLYGYWGQGTQVTVSS	high polyreactivity

Sequence	polyreactivity (PSR sort gate)
QVQLVESGGGIVQAGGSLPLSCAASGSTYNSYAMGWYRQAPGKDRELVAGISYIGGRTYYADSVKGRFTISRDNAKNTVYLQMNSLKPEDTAVYYCAAVYWYGRRKYYSWGQGTQVTVSS	high polyreactivity
QVQLVESGGGLVQAGGSLRLICSASGSIFPQYAMVSYRPEPGKERALFAAISYSGGRSYYADSVKGRFTISRDIAKNTVYLQMNSLKTEYTGVYYWAARVKRGIPTYGKCYYAFGDWGQGTQVTVSS	high polyreactivity
QVQLVESGVGLVQAGGSLRLSCAASGFTFTRYAMGWYRQAPGKERELVAAISWTGGSTYYADSVKGRFTISRDNAKNTVYLQMNSLKPEDTAVYYCAGRFNYQWSKFGYWGQGTQVTVSS	high polyreactivity
QVQLVESGGGLVHAGGSLLLSCDATGISLVRYSMGWYRQAPGKELELVAAISGSGGSTRYADSVKGRFTISRDNAKNTVYLQMNSMIPEDSAVYYCAARGAGPLDNHYSWGQGKQVTVSS	high polyreactivity
QVQLVESGGGLVQAGGSLRLSCAASGRTYYYYAMGWYRQAPGTQRELVASIRYSTGSTYYADSVKARFTISRDNAKNTVYLQKNSLKPVDTAVYYCAGLRYARASRYDYWGLGTQVTVSS	high polyreactivity
PVQLVESGGGLVQAGGSLSLTCAASGSIFPYYTMRWYRPAPGKERELVATITGNGGSTYADSGKGRFTISRDNAKNTVYLQMNSLKPEDTAVYYCAVYGDSYWGAYYYSDGYWGQGTQVTVSS	low polyreactivity
QVQLVESGGGLVQAGGSLRLSCAASGSTFNSNAMGWYRQAPGKERELVAAISYSGGRTYYADSVKGRFTISRDNAKNTVYLQMNSLKPEDTAVYYCAKSPNHYIHFDYWGQGTQVTVSS	low polyreactivity
QVQLVESGGGLVQAGGSLRLSCAASGFIFYSNAMGWYRQAPGKARELVAAISWGGGRTYYADSVKGRFTISRDNAKNTVYLQMNSLKPEDTAVYYCAADTIVGNGIKFDYWGQGTQVTVSS	high polyreactivity
QVQLVESGGGLVQAGGSLRLSCAASGLIFSSNAMGWYRQAPGKERELVAAISRRGGNTYYADSVKGRFTISRDNAKNTVYLQMNSLKPEDTAVYYCAIRYVGRGTSYQDYYWGLGTQVTVSS	high polyreactivity
QVQLVESGGGLVQAGGSLRLSCAASGFIFQAYAMGWYRQAPGKERELVAAISSSGGSTYYADSVKGRFTISRDNAKNTVYLQMNSLKPEDTAVYYCAARSRRVSLIRDSYGYWGQGTQVTVSS	high polyreactivity
QVQLVESGGGLVQAGGSLRLSCAASGSTFRYNAMGWYRQAPGKERELFAAISFSGGSTYYADSVKGRFTISRDNAKNTVYLQMNSLKPEDTAVYYCAARWSSWPSYLAVPRLYYWGQGTQVTVSS	high polyreactivity
QVQLVESGGGLVQAGGSLRLSCAASGSIFASYGLGWYRQAPGKARELVAAITSRGTSTYYADSVKGRFTISRDNAKNTVDLQMHSLKPEETAVYYCAARLYGSAPQHEYWGQGTQVTVSS	low polyreactivity
QVQLVESGGGLVQAGGSLRLSCAASGITFQPYAMGWYRQAPGKEREFVAVISFRGGSTYYADSVKGRFTISRDNAKNTVYLQMNSLKPEDTAVYYCAALEYHGHTGGRVYYWVQGTQVTVSS	high polyreactivity
QVQLVESGGGLVQAGGSLRLSCAASGRTSYVYAMGWYRQAPGKERELVATISFRGGSTYYADSVKGRFTISRDNAKNTVYLQMNSLKPEDTAVYYCAATTPYYTPRRRNEYWGQGTQVTVSS	high polyreactivity
QVQLVESGGGLVQAGGSLRLSCAASGFIFYTYAMGWYRQAPGKERELVAAISRGGRTNYADSVKGRFTISRDNAKNTVYLQMNSLKPEDTAVYYCASSYSHRYDYWGQGTQVTVSS	high polyreactivity
